# Experimental data: the supplement of paper PMC9112550, “Optimization of the antimicrobial peptide Bac7 by deep mutational scanning” (BMC Biology, 2022)
# Test system: Escherichia coli TOP10
# Experiment: shrunken log2 fold change of peptide-encoding DNA abundance (4.5 h post-induction vs induction); higher = less antimicrobial activity (less host growth inhibition)
# Conditions: time post-induction: 4.5 h; library: site-saturation at positions 5, 18, 19, 20
# 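Further: peptides expressed intracellularly from a pBAD plasmid library in pooled LB shake-flask culture, induced with 0.3% L-arabinose, DNA abundance read by NGS, three biological replicates, DESeq2 with apeglm shrinkage.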
row,Sequence,shrunken log2 fold change
1,RRIRTRPPRLPRPRPRPKKNPRP,0.409
2,RRIRCRPPRLPRPRPRPHFFPRP,-0.633
3,RRIRMRPPRLPRPRPRPEGPPRP,0.578
4,RRIRLRPPRLPRPRPRPYTTPRP,-0.488
5,RRIRKRPPRLPRPRPRPNEWPRP,0.0498
6,RRIRVRPPRLPRPRPRPPCFPRP,0.17
7,RRIRWRPPRLPRPRPRPWISPRP,-0.124
8,RRIRCRPPRLPRPRPRPSRQPRP,0.222
9,RRIRMRPPRLPRPRPRPIHGPRP,0.0579
10,RRIRSRPPRLPRPRPRPCSRPRP,-0.179
11,RRIRGRPPRLPRPRPRPQAFPRP,0.112
12,RRIRVRPPRLPRPRPRPVEDPRP,-0.378
13,RRIRIRPPRLPRPRPRPWRYPRP,-0.0701
14,RRIRIRPPRLPRPRPRPKMEPRP,-0.103
15,RRIRGRPPRLPRPRPRPTQIPRP,1.38
16,RRIRTRPPRLPRPRPRPWYNPRP,-0.325
17,RRIRVRPPRLPRPRPRPEKIPRP,-0.191
18,RRIRVRPPRLPRPRPRPVGMPRP,-0.0289
19,RRIRQRPPRLPRPRPRPCYQPRP,-0.0254
20,RRIRVRPPRLPRPRPRPFLSPRP,-0.567
21,RRIRNRPPRLPRPRPRPTMQPRP,0.0135
22,RRIRGRPPRLPRPRPRPSCQPRP,0.925
23,RRIRMRPPRLPRPRPRPQMFPRP,-0.0181
24,RRIRWRPPRLPRPRPRPHRWPRP,0.103
25,RRIRARPPRLPRPRPRPCLFPRP,-0.131

row,Sequence,shrunken log2 fold change
1,RRIRIRPPRLPRPRPRPLRAPRP,0.367
2,RRIRLRPPRLPRPRPRPHIQPRP,-0.341
3,RRIRCRPPRLPRPRPRPILGPRP,-0.378
4,RRIRYRPPRLPRPRPRPHSKPRP,-0.463
5,RRIRVRPPRLPRPRPRPPVQPRP,0.377
6,RRIRSRPPRLPRPRPRPRSCPRP,0.108
7,RRIRWRPPRLPRPRPRPNQWPRP,0.223
8,RRIRNRPPRLPRPRPRPHCDPRP,-0.292
9,RRIRHRPPRLPRPRPRPIMCPRP,-0.245
10,RRIRKRPPRLPRPRPRPCNRPRP,0.0247
11,RRIRCRPPRLPRPRPRPSKVPRP,-0.156
12,RRIRCRPPRLPRPRPRPTCVPRP,-0.0603
13,RRIRFRPPRLPRPRPRPSWIPRP,-0.177
14,RRIRERPPRLPRPRPRPFLRPRP,-0.401
15,RRIRKRPPRLPRPRPRPSLCPRP,-0.239
16,RRIRWRPPRLPRPRPRPRCIPRP,-0.036
17,RRIRGRPPRLPRPRPRPIMWPRP,0.39
18,RRIRSRPPRLPRPRPRPSILPRP,-0.235
19,RRIRTRPPRLPRPRPRPGTWPRP,-0.0246
20,RRIRWRPPRLPRPRPRPTCYPRP,-0.0755
21,RRIRWRPPRLPRPRPRPRWIPRP,0.211
22,RRIRGRPPRLPRPRPRPKWPPRP,0.322
23,RRIRFRPPRLPRPRPRPGIGPRP,-0.0363
24,RRIRQRPPRLPRPRPRPYPTPRP,0.0734
25,RRIRTRPPRLPRPRPRPQVLPRP,-0.0479

row,Sequence,shrunken log2 fold change
1,RRIRWRPPRLPRPRPRPQNPPRP,-0.0448
2,RRIRERPPRLPRPRPRPKGPPRP,0.0237
3,RRIRPRPPRLPRPRPRPAGQPRP,-0.0709
4,RRIRRRPPRLPRPRPRPEWCPRP,0.17
5,RRIRNRPPRLPRPRPRPEIAPRP,-0.0256
6,RRIRKRPPRLPRPRPRPAEGPRP,0.305
7,RRIRHRPPRLPRPRPRPCVFPRP,-0.0413
8,RRIRYRPPRLPRPRPRPEKAPRP,0.00447
9,RRIRQRPPRLPRPRPRPFLAPRP,0.286
10,RRIRFRPPRLPRPRPRPIIQPRP,-0.786
11,RRIRMRPPRLPRPRPRPIEEPRP,0.278
12,RRIRTRPPRLPRPRPRPLDYPRP,-2.42
13,RRIRKRPPRLPRPRPRPNPAPRP,-0.000888
14,RRIRNRPPRLPRPRPRPKTGPRP,-0.0778
15,RRIRCRPPRLPRPRPRPCVNPRP,-0.106
16,RRIRCRPPRLPRPRPRPRMVPRP,0.205
17,RRIRWRPPRLPRPRPRPVGWPRP,1.13
18,RRIRNRPPRLPRPRPRPFFNPRP,-0.725
19,RRIRNRPPRLPRPRPRPVMNPRP,-0.075
20,RRIRKRPPRLPRPRPRPEHHPRP,-0.0888
21,RRIRFRPPRLPRPRPRPESCPRP,-0.141
22,RRIRKRPPRLPRPRPRPQMRPRP,0.292
23,RRIRGRPPRLPRPRPRPWWHPRP,-0.22
24,RRIRMRPPRLPRPRPRPAHQPRP,0.397
25,RRIRARPPRLPRPRPRPENSPRP,0.172

row,Sequence,shrunken log2 fold change
1,RRIRRRPPRLPRPRPRPPRSPRP,0.904
2,RRIRQRPPRLPRPRPRPPNSPRP,-0.0968
3,RRIRVRPPRLPRPRPRPIVMPRP,-0.107
4,RRIRWRPPRLPRPRPRPNVAPRP,0.088
5,RRIRVRPPRLPRPRPRPLMGPRP,0.0412
6,RRIRMRPPRLPRPRPRPRRSPRP,0.438
7,RRIRFRPPRLPRPRPRPCWPPRP,0.0203
8,RRIRKRPPRLPRPRPRPDNMPRP,0.107
9,RRIRARPPRLPRPRPRPACWPRP,0.849
10,RRIRHRPPRLPRPRPRPGFHPRP,-0.323
11,RRIRKRPPRLPRPRPRPCWIPRP,-0.0557
12,RRIRWRPPRLPRPRPRPDVNPRP,-0.125
13,RRIRFRPPRLPRPRPRPFNDPRP,0.00352
14,RRIRDRPPRLPRPRPRPDCGPRP,0.315
15,RRIRCRPPRLPRPRPRPLILPRP,-0.373
16,RRIRHRPPRLPRPRPRPIRMPRP,-0.217
17,RRIRVRPPRLPRPRPRPWLWPRP,0.475
18,RRIRPRPPRLPRPRPRPYFVPRP,-0.488
19,RRIRMRPPRLPRPRPRPIKHPRP,-0.0825
20,RRIRKRPPRLPRPRPRPKFNPRP,-0.0876
21,RRIRPRPPRLPRPRPRPDCAPRP,0.354
22,RRIRFRPPRLPRPRPRPPPWPRP,0.961
23,RRIRPRPPRLPRPRPRPSPHPRP,-0.367
24,RRIRARPPRLPRPRPRPIHHPRP,-0.302
25,RRIRWRPPRLPRPRPRPATTPRP,0.859

row,Sequence,shrunken log2 fold change
1,RRIRPRPPRLPRPRPRPCPHPRP,-0.81
2,RRIRFRPPRLPRPRPRPMSQPRP,0.0397
3,RRIRHRPPRLPRPRPRPPCRPRP,-0.0923
4,RRIRQRPPRLPRPRPRPPNAPRP,0.285
5,RRIRHRPPRLPRPRPRPATMPRP,-0.123
6,RRIRCRPPRLPRPRPRPVFCPRP,-0.131
7,RRIRRRPPRLPRPRPRPIHDPRP,0.169
8,RRIRVRPPRLPRPRPRPYFHPRP,-0.738
9,RRIRRRPPRLPRPRPRPWIQPRP,0.0321
10,RRIRVRPPRLPRPRPRPLRIPRP,0.0616
11,RRIRGRPPRLPRPRPRPGQYPRP,-0.0691
12,RRIRLRPPRLPRPRPRPARMPRP,0.386
13,RRIRMRPPRLPRPRPRPQNKPRP,-0.176
14,RRIRCRPPRLPRPRPRPKMLPRP,-0.0357
15,RRIRDRPPRLPRPRPRPQNPPRP,-0.00133
16,RRIRCRPPRLPRPRPRPYTKPRP,-0.321
17,RRIRLRPPRLPRPRPRPALLPRP,0.295
18,RRIRIRPPRLPRPRPRPVGIPRP,0.16
19,RRIRPRPPRLPRPRPRPVNQPRP,0.223
20,RRIRLRPPRLPRPRPRPKDQPRP,-0.271
21,RRIRFRPPRLPRPRPRPPCPPRP,0.46
22,RRIRHRPPRLPRPRPRPKVAPRP,-0.049
23,RRIRWRPPRLPRPRPRPFNEPRP,-0.69
24,RRIRKRPPRLPRPRPRPCKMPRP,0.093
25,RRIRARPPRLPRPRPRPWPPPRP,0.887

row,Sequence,shrunken log2 fold change
1,RRIRVRPPRLPRPRPRPEDRPRP,0.0837
2,RRIRPRPPRLPRPRPRPLQFPRP,-0.178
3,RRIRVRPPRLPRPRPRPADDPRP,0.203
4,RRIRRRPPRLPRPRPRPYQDPRP,0.00143
5,RRIRTRPPRLPRPRPRPGLYPRP,0.194
6,RRIRTRPPRLPRPRPRPYMDPRP,-1.37
7,RRIRDRPPRLPRPRPRPFVGPRP,-0.0346
8,RRIRMRPPRLPRPRPRPKDFPRP,-0.025
9,RRIRVRPPRLPRPRPRPTHKPRP,0.333
10,RRIRFRPPRLPRPRPRPHKEPRP,-0.203
11,RRIRKRPPRLPRPRPRPEIRPRP,0.171
12,RRIRSRPPRLPRPRPRPYCWPRP,-0.419
13,RRIRQRPPRLPRPRPRPRPDPRP,0.191
14,RRIRERPPRLPRPRPRPASDPRP,-0.105
15,RRIRPRPPRLPRPRPRPQGVPRP,0.07
16,RRIRHRPPRLPRPRPRPPVNPRP,0.0303
17,RRIRHRPPRLPRPRPRPRLGPRP,0.143
18,RRIRDRPPRLPRPRPRPWSFPRP,0.0765
19,RRIRDRPPRLPRPRPRPPCNPRP,-0.424
20,RRIRVRPPRLPRPRPRPVEGPRP,0.112
21,RRIRRRPPRLPRPRPRPRISPRP,0.482
22,RRIRMRPPRLPRPRPRPRESPRP,0.09
23,RRIRGRPPRLPRPRPRPSFIPRP,-0.166
24,RRIRIRPPRLPRPRPRPLIYPRP,-0.255
25,RRIRPRPPRLPRPRPRPTWWPRP,0.426
